Results: paper PMC5745793 (2017)
Like-named read-outs stand apart in the source and are kept apart here.

Tests used:
CCR3 (Homo sapiens) [1] = target: CCR3 (Homo sapiens) (UniProt P51677); conditions: cited from earlier work
CCR3 (Homo sapiens) [2] = target: CCR3 (Homo sapiens) (UniProt P51677); conditions: cited from earlier work; remark: listed apart in the source
CCR3 = target: T1, CCR3 (Homo sapiens, UniProt P51677); test: QCM
T1 chain: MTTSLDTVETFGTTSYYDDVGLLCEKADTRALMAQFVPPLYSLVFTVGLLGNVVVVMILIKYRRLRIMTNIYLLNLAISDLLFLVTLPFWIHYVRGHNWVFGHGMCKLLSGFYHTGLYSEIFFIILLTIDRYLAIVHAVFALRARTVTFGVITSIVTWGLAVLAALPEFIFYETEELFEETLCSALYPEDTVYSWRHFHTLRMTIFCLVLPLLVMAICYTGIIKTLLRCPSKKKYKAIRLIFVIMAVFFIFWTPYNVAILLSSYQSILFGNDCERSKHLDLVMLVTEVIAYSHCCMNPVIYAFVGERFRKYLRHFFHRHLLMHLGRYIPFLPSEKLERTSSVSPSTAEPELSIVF

## CCL11 (from UniProt P51671)
CCR3 (Homo sapiens) [1]
  Kd: 370 nM

## CCL24 (from UniProt O00175)
CCR3 (Homo sapiens) [2]
  Kd: 300 nM

B1: CCL8 (protein)
chain: QPDSVSIPITCCFNVINRKIPIQRLESYTRITNIQCPKEAVIFKTKRGKEVCADPKERWVRDSMKHLDQIFQNLKP
CCR3
  Kd: 120 nM
